According to patent publication US9566335:

Tests used:
[1] = target: biotinylated peptide X-…(biotin), X = Y; experiment: phage ELISA, biotinylated peptide on neutravidin; phage 10×
[2] = target: biotinylated peptide X-…(biotin), X = F; experiment: as above
[3] = target: biotinylated peptide X-…(biotin), X = Y; experiment: phage ELISA, biotinylated peptide on neutravidin
[4] = target: biotinylated peptide X-…(biotin), X = F; experiment: phage ELISA, biotinylated peptide on neutravidin

Substance: Phage displayed wild-type E. coli ClpS (truncated wildtype ClpS polypeptide, FLAG-tagged, fused to phage coat protein p3) (from UniProt A7ZJU9 23-106)
- phage ELISA signal (A450) [1]: 1.08
- phage ELISA signal (A450) [2]: 1.81
- phage ELISA signal (A450) [3]: 1.08
- phage ELISA signal (A450) [4]: 1.81
